Data from PMC6888877, “Deconstructing and repurposing the light-regulated interplay between Arabidopsis phytochromes and interacting factors” (Communications Biology, 2019).

How the values were obtained:
Test in all cases: SEC; 50 µM AtPhyB PCM + 10 µM AtPIF-EYFP (5:1), illuminated with red light (650 nm, 2 min; results say 640 nm), Pfr state; Superdex 200 Increase 10/300 GL; 67 mM sodium phosphate pH 8.0, 200 mM NaCl
Settings in all cases: both partners purified
[1] = target: T1, P6 (AtPIF6 1-100 without the N-terminal region preceding APB.A)-EYFP (Arabidopsis thaliana)
T1 chain: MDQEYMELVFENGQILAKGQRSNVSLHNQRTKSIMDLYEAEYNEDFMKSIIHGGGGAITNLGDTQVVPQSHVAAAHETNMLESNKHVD

[2] = target: T2, P3 (AtPIF3 1-100 without the N-terminal region preceding APB.A)-EYFP (Arabidopsis thaliana)
T2 chain: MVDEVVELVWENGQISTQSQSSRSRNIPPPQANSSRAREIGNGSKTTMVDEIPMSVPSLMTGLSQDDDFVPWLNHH

[3] = target: T3, P6.As-EYFP (Arabidopsis thaliana)
T3 chain: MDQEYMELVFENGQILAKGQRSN

[4] = target: T4, P3.AAfus-EYFP (Arabidopsis thaliana)
T4 chain: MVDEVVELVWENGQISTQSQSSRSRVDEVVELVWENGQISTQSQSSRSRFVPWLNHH

[5] = target: T5, AtPIF6 (1-100)-EYFP, P6.100 (Arabidopsis thaliana, UniProt Q8L5W7 1-100)
T5 construct: A. thaliana PIF6, residues 1-100; His6-SUMO only on the pET-19b construct that was purified; the pET-28c construct used in lysate has the same AtPIF part, linker and EYFP; also called P6.100-EYFP; source: E. coli BL21(DE3): in crude lysate (pET-28c), and purified (pET-19b; IMAC, SENP2 cleavage, second IMAC, optional anion exchange); not shown: His6-SUMO, N-terminal, cleaved
T5 sequence (looked up): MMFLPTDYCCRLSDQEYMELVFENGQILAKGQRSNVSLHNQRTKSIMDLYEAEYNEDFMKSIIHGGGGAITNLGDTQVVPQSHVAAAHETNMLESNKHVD

[6] = target: T6, P6.fus-EYFP (Arabidopsis thaliana)
T6 chain: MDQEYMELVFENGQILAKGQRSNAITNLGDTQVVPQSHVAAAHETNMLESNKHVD

[7] = target: T7, P6.A-EYFP (Arabidopsis thaliana)
T7 chain: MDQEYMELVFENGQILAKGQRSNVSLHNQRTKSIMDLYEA

[8] = target: T8, P3.AA-EYFP (Arabidopsis thaliana)
T8 chain: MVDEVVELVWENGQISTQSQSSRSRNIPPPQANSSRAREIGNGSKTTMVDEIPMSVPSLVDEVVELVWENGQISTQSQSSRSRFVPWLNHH

[9] = target: T9, AtPIF3 (1-100)-EYFP, P3.100 (Arabidopsis thaliana, UniProt O80536 1-100)
T9 construct: A. thaliana PIF3, residues 1-100; His6-SUMO only on the pET-19b construct that was purified; the pET-28c construct used in lysate has the same AtPIF part, linker and EYFP; also called P3.100-EYFP; source: E. coli BL21(DE3): in crude lysate (pET-28c), and purified (pET-19b; IMAC, SENP2 cleavage, second IMAC, optional anion exchange); not shown: His6-SUMO, N-terminal, cleaved
T9 sequence (looked up): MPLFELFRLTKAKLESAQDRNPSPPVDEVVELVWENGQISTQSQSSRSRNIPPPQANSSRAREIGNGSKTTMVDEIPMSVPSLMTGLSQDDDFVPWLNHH

[10] = target: T10, P3.fus-EYFP (Arabidopsis thaliana)
T10 chain: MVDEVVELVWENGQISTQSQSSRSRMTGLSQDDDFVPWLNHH

[11] = target: T11, P3.As-EYFP (Arabidopsis thaliana)
T11 chain: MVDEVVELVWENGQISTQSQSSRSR

- stoichiometry N [1]: 1
- stoichiometry N [2]: 1
- stoichiometry N [3]: 1
- stoichiometry N [4]: 1
- stoichiometry N [5]: 1
- stoichiometry N [6]: 1
- stoichiometry N [7]: 1
- stoichiometry N [8]: 1
- stoichiometry N [9]: 1
- stoichiometry N [10]: 1
- stoichiometry N [11]: 1
B1: Arabidopsis thaliana phytochrome B photosensory core module (AtPhyB PCM) (domain or fragment, UniProt P14713 1-651, looked up)
chain: MVSGVGGSGGGRGGGRGGEEEPSSSHTPNNRRGGEQAQSSGTKSLRPRSNTESMSKAIQQYTVDARLHAVFEQSGESGKSFDYSQSLKTTTYGSSVPEQQITAYLSRIQRGGYIQPFGCMIAVDESSFRIIGYSENAREMLGIMPQSVPTLEKPEILAMGTDVRSLFTSSSSILLERAFVAREITLLNPVWIHSKNTGKPFYAILHRIDVGVVIDLEPARTEDPALSIAGAVQSQKLAVRAISQLQALPGGDIKLLCDTVVESVRDLTGYDRVMVYKFHEDEHGEVVAESKRDDLEPYIGLHYPATDIPQASRFLFKQNRVRMIVDCNATPVLVVQDDRLTQSMCLVGSTLRAPHGCHSQYMANMGSIASLAMAVIINGNEDDGSNVASGRSSMRLWGLVVCHHTSSRCIPFPLRYACEFLMQAFGLQLNMELQLALQMSEKRVLRTQTLLCDMLLRDSPAGIVTQSPSIMDLVKCDGAAFLYHGKYYPLGVAPSEVQIKDVVEWLLANHADSTGLSTDSLGDAGYPGAAALGDAVCGMAVAYITKRDFLFWFRSHTAKEIKWGGAKHHPEDKDDGQRMHPRSSFQAFLEVVKSRSQPWETAEMDAIHSLQLILRDSFKESEAAMNSKVVDGVVQPCRDMAGEQGIDELGA
modifications: covalently incorporated bilin chromophore (PCB; co-expressed Synechocystis sp. heme oxygenase 1 and pcyA)
notes: A. thaliana phytochrome B, photosensory core module (PAS-GAF-PHY with N-terminal extension), residues 1-651; Pr state (far-red light or dark) and Pfr state (red light; Pfr/Pr about 0.56/0.44) are told apart by the assays; In the cell experiments other constructs were used (PCM-VP16; PCM 1-650 with CAAX); source: E. coli BL21(DE3), plasmid pDG282, purified (Ni-NTA IMAC, anion exchange)
